Test results taken from patent US9260500B2, “Peptide and use thereof” (Takeda Pharmaceutical Company Limited, priority 2009, dated 2016).
Non-standard residues stand in square brackets, D forms with d. *: point of attachment. X1 = ((1S)-1-carboxy-2-(4-hydroxyphenyl)ethyl)carbamoyl, O=C(O)[C@H](Cc1ccc(O)cc1)NC(=O)*; X4 = ((1S)-1-Carboxy-3-methylbutyl)carbamoyl, CC(C)C[C@H](NC(=O)*)C(=O)O; X3 = ((1S)-1-Carboxy-2-hydroxyethyl)carbamoyl, O=C(O)[C@H](CO)NC(=O)*; X8 = (2-Hydroxy-1-(hydroxymethyl)ethyl)carbamoyl, O=C(NC(CO)CO)*; X5 = tetrahydro‑2H‑pyran‑4‑yl‑carbamoyl, O=C(NC1CCOCC1)*; carbamoylmethylcarbamoyl = NC(=O)CNC(=O)*; morpholinocarbonyl = O=C(N1CCOCC1)*; 4Pal = N[C@@H](Cc1ccncc1)C(=O)O; dHyp = O=C(O)[C@H]1C[C@H](O)CN1; Cha = N[C@@H](CC1CCCCC1)C(=O)O; Iva = CC[C@](C)(N)C(=O)O; Aib = CC(C)(N)C(=O)O; Glycolyl = O=C(CO)*

Legend:
[1] = target: T1, human Y2 receptor (Homo sapiens, UniProt P49146); experiment: Receptor Binding Assay (RBA) for Human Y2, [125I]-PYY displacement on hY2R/CHO membrane fraction; conditions: IC50 of test compound/IC50 of PYY(3-36) (PYY(3-36) taken as 1)
T1 construct: expressed in transfected cells; membrane fraction
T1 sequence (P49146 1-381): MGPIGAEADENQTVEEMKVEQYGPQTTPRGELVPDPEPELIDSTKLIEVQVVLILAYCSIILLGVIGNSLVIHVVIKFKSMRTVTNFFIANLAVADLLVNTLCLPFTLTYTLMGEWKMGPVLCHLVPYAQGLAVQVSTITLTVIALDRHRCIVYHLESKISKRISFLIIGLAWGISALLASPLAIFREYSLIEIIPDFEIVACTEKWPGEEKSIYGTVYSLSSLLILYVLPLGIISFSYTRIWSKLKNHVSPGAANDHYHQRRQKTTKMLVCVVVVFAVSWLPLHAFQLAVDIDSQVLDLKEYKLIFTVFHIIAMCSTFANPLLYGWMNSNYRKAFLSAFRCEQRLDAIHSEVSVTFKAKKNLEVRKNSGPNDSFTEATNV
In short: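 hY2R stably expressed in CHO/dhfr− cells; membrane fraction prepared from cells disrupted in 10 mM NaHCO3, 5 mM EDTA buffer with protease inhibitors. Binding read as displacement of [125I]-PYY.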

[2] = system: male C57EL/6J mice; experiment: 3-Days Continuous Subcutaneous Administration Test-1 (food intake suppressing activity); format: in vivo, mouse; conditions: 0.03 mg/kg/day, subcutaneous Alzet pump, food consumption over 3 days; relative to food intake suppression rate for PYY(3-36) (1 mg/kg/day) taken as 100%
In short: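 Male […] mice, 12-13 weeks, received compound at 0.03 mg/kg/day by subcutaneous osmotic pump (50% DMSO vehicle), housed singly with free food access. Food consumed over 3 days measured; suppression expressed relative to PYY(3-36) (1 mg/kg/day) set as 100%.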

[3] = target: T1, human Y2 receptor; experiment: Human Y2 Receptor G Protein Binding Assay (GBA), [35S]GTPγS; format: biochemical; conditions: EC50 of test compound/EC50 of PYY(3-36) (PYY3-36 taken as 1), hY2R/CHO membrane fraction
In short: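 Agonism measured as [35S]GTPγS binding, read by GF/C filtration and scintillation counting after 120 min at room temperature, using human Y2 membranes at 1 μg protein/mL in pH 7.4 Tris/MgCl2/NaCl/GDP buffer. Compound serially diluted 100 μM–1 nM; EC50 normalized to PYY(3-36) (ratio = compound/PYY).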

| Substance | RBA IC50 Ratio [1] | food intake suppression rate (%) [2] | GBA EC50 Ratio [3] |
| --- | --- | --- | --- |
| Ac-[Iva24, Pya(4)26, Cha27,36, Aib28,31, Lys30]-PYY(23-36) (Ac-S[Iva]R[4Pal][Cha][Aib]NK[Aib]TRQR[Cha]-NH2; SMILES CC[C@](C)(NC(=O)[C@H](CO)NC(C)=O)C(=O)N[C@@H](CCCNC(=N)N)C(=O)N[C@@H](Cc1ccncc1)C(=O)N[C@@H](CC1CCCCC1)C(=O)NC(C)(C)C(=O)N[C@@H](CC(N)=O)C(=O)N[C@@H](CCCCN)C(=O)NC(C)(C)C(=O)N[C@H](C(=O)N[C@@H](CCCNC(=N)N)C(=O)N[C@@H](CCC(N)=O)C(=O)N[C@@H](CCCNC(=N)N)C(=O)N[C@@H](CC1CCCCC1)C(N)=O)[C@@H](C)O) [compound No. 241] | 0.58 | 16% | 0.91 |
| Carbamoylmethylcarbamoyl-[D-Pro24, Iva25, Pya(4)26, Cha27,36, Aib28,31, Lys30]-PYY(23-36) (carbamoylmethylcarbamoyl-S[dP][Iva][4Pal][Cha][Aib]NK[Aib]TRQR[Cha]-NH2; SMILES CC[C@](C)(NC(=O)[C@H]1CCCN1C(=O)[C@H](CO)NC(=O)NCC(N)=O)C(=O)N[C@@H](Cc1ccncc1)C(=O)N[C@@H](CC1CCCCC1)C(=O)NC(C)(C)C(=O)N[C@@H](CC(N)=O)C(=O)N[C@@H](CCCCN)C(=O)NC(C)(C)C(=O)N[C@H](C(=O)N[C@@H](CCCNC(=N)N)C(=O)N[C@@H](CCC(N)=O)C(=O)N[C@@H](CCCNC(=N)N)C(=O)N[C@@H](CC1CCCCC1)C(N)=O)[C@@H](C)O) [compound No. 331] | 1.7 | 35% | 1.7 |
| Glycoloyl-[D-Hyp24, Iva25,28, Pya(4)26, Cha27,36, Leu(Me)28, Lys30, Aib31]-PYY(23-36) (Glycolyl-S[dHyp][Iva][4Pal][Cha][Iva]NK[Aib]TRQR[Cha]-NH2) [compound No. 338] | 1.9 | 27% | 2.1 |
| Morpholinocarbonyl-[D-Pro24, Pya(4)26, Cha27,36, Aib28,31, Lys30]-PYY(23-36) (morpholinocarbonyl-S[dP]R[4Pal][Cha][Aib]NK[Aib]TRQR[Cha]-NH2; SMILES C[C@@H](O)[C@H](NC(=O)C(C)(C)NC(=O)[C@H](CCCCN)NC(=O)[C@H](CC(N)=O)NC(=O)C(C)(C)NC(=O)[C@H](CC1CCCCC1)NC(=O)[C@H](Cc1ccncc1)NC(=O)[C@H](CCCNC(=N)N)NC(=O)[C@H]1CCCN1C(=O)[C@H](CO)NC(=O)N1CCOCC1)C(=O)N[C@@H](CCCNC(=N)N)C(=O)N[C@@H](CCC(N)=O)C(=O)N[C@@H](CCCNC(=N)N)C(=O)N[C@@H](CC1CCCCC1)C(N)=O) [compound No. 268] | 0.89 | 16% | 0.57 |
| Tetrahydro-2H-pyran-4-yl-carbamoyl-[D-Pro24, Pya(4)26, Cha27,36, Aib28,31, Lys30]-PYY(23-36) (X5-S[dP]R[4Pal][Cha][Aib]NK[Aib]TRQR[Cha]-NH2; ends and bridges not checked) [compound No. 270] | 0.52 | 28% | 0.61 |
| Tetrahydro-2H-pyran-4-yl-carbamoyl-[Glu23, D-Pro24, Pya(4)26, Cha27,36, Aib28,31, Lys30]-PYY(23-36) (X5-E[dP]R[4Pal][Cha][Aib]NK[Aib]TRQR[Cha]-NH2; ends and bridges not checked) [compound No. 282] | 1.1 | 30% | 1.6 |
| [2-Hydroxy-1-(hydroxymethyl)ethyl]carbamoyl-[D-Pro24, Iva25, Pya(4)26, Cha27,36, Aib28,31, Lys30]-PYY(23-36) (X8-S[dP][Iva][4Pal][Cha][Aib]NK[Aib]TRQR[Cha]-NH2; SMILES CC[C@](C)(NC(=O)[C@H]1CCCN1C(=O)[C@H](CO)NC(=O)NC(CO)CO)C(=O)N[C@@H](Cc1ccncc1)C(=O)N[C@@H](CC1CCCCC1)C(=O)NC(C)(C)C(=O)N[C@@H](CC(N)=O)C(=O)N[C@@H](CCCCN)C(=O)NC(C)(C)C(=O)N[C@H](C(=O)N[C@@H](CCCNC(=N)N)C(=O)N[C@@H](CCC(N)=O)C(=O)N[C@@H](CCCNC(=N)N)C(=O)N[C@@H](CC1CCCCC1)C(N)=O)[C@@H](C)O) [compound No. 339] | 1.76 | 51% | 2.0 |
| [(1S)-1-Carboxy-2-(4-hydroxyphenyl)ethyl]carbamoyl-[D-Pro24, Pya(4)26, Cha27,36, Aib28,31, Lys30]-PYY(23-36) (X1-S[dP]R[4Pal][Cha][Aib]NK[Aib]TRQR[Cha]-NH2; SMILES C[C@@H](O)[C@H](NC(=O)C(C)(C)NC(=O)[C@H](CCCCN)NC(=O)[C@H](CC(N)=O)NC(=O)C(C)(C)NC(=O)[C@H](CC1CCCCC1)NC(=O)[C@H](Cc1ccncc1)NC(=O)[C@H](CCCNC(=N)N)NC(=O)[C@H]1CCCN1C(=O)[C@H](CO)NC(=O)N[C@@H](Cc1ccc(O)cc1)C(=O)O)C(=O)N[C@@H](CCCNC(=N)N)C(=O)N[C@@H](CCC(N)=O)C(=O)N[C@@H](CCCNC(=N)N)C(=O)N[C@@H](CC1CCCCC1)C(N)=O) [compound No. 285] | 0.95 | 28% | 1.2 |
| [(1S)-1-Carboxy-2-hydroxyethyl]carbamoyl-[D-Pro24, Iva25, Pya(4)26, Cha27,36, Aib28,31, Lys30]-PYY(23-36) (X3-S[dP][Iva][4Pal][Cha][Aib]NK[Aib]TRQR[Cha]-NH2; SMILES CC[C@](C)(NC(=O)[C@H]1CCCN1C(=O)[C@H](CO)NC(=O)N[C@@H](CO)C(=O)O)C(=O)N[C@@H](Cc1ccncc1)C(=O)N[C@@H](CC1CCCCC1)C(=O)NC(C)(C)C(=O)N[C@@H](CC(N)=O)C(=O)N[C@@H](CCCCN)C(=O)NC(C)(C)C(=O)N[C@H](C(=O)N[C@@H](CCCNC(=N)N)C(=O)N[C@@H](CCC(N)=O)C(=O)N[C@@H](CCCNC(=N)N)C(=O)N[C@@H](CC1CCCCC1)C(N)=O)[C@@H](C)O) [compound No. 332] | 3.5 | 32% | 3.0 |
| [(1S)-1-Carboxy-3-methylbutyl]carbamoyl-[D-Pro24, Pya(4)26, Cha27,36, Aib28,31, Lys30]-PYY(23-36) (X4-S[dP]R[4Pal][Cha][Aib]NK[Aib]TRQR[Cha]-NH2; SMILES CC(C)C[C@H](NC(=O)N[C@@H](CO)C(=O)N1CCC[C@@H]1C(=O)N[C@@H](CCCNC(=N)N)C(=O)N[C@@H](Cc1ccncc1)C(=O)N[C@@H](CC1CCCCC1)C(=O)NC(C)(C)C(=O)N[C@@H](CC(N)=O)C(=O)N[C@@H](CCCCN)C(=O)NC(C)(C)C(=O)N[C@H](C(=O)N[C@@H](CCCNC(=N)N)C(=O)N[C@@H](CCC(N)=O)C(=O)N[C@@H](CCCNC(=N)N)C(=O)N[C@@H](CC1CCCCC1)C(N)=O)[C@@H](C)O)C(=O)O) [compound No. 271] | 0.82 | 28% | 0.82 |
